Data published in the Human Domainome abundance scans (Beltran et al. 2025).
± gives the uncertainty stated by the source.

B1: COUP transcription factor 1, residues 83 to 159; numbered along this chain, P10589 (parent)
chain: HIECVVCGDKSSGKHYGQFTCEGCKSFFKRSVRRNLTYTCRANRNCPIDQHHRNQCQYCRLKKCLKVGMRREAVQRG

Variants of: B1
Assay: abundance fitness (aPCA) (normalised: wild type 0, dead -1); higher = more abundant; growth selection in yeast, the domain comes from the species named
Conditions: Homo sapiens

Point of comparison: F27E, abundance fitness -0.519 ± 0.15. Against it:
- A73K — higher, -0.183 ± 0.056
- A73I — higher, -0.239 ± 0.092
- A73Y — higher, -0.061 ± 0.068
- A73L — higher, -0.04 ± 0.036
- A73P — higher, -0.11 ± 0.05
- A73Q — higher, 0.063 ± 0.046
- N45D — higher, -0.035 ± 0.12
- N45Y — within error, -0.595 ± 0.42
- N45L — within error, -0.322 ± 0.14
- R60P — within error, -0.602 ± 0.092
- R60E — within error, -0.503 ± 0.06
- R60S — within error, -0.56 ± 0.064
- R60T — higher, -0.007 ± 0.046
- C24W — within error, -0.707 ± 0.09
- C24T — lower, -0.885 ± 0.19
- C24N — within error, -0.702 ± 0.35
- C24I — within error, -0.509 ± 0.28
- K10H — within error, -0.288 ± 0.21
- K10F — higher, -0.029 ± 0.11
- K10Y — higher, 0.045 ± 0.098
- K10E — higher, -0.104 ± 0.06
- K10S — higher, -0.153 ± 0.051
- T37K — higher, 0.139 ± 0.054
- T37S — higher, -0.009 ± 0.047
- T37C — higher, -0.048 ± 0.081
- T37Y — higher, -0.254 ± 0.1
- T37E — higher, 0.178 ± 0.069
- N43W — higher, 0.015 ± 0.072
- N43I — within error, -0.335 ± 0.24
- R30K — higher, 0.389 ± 0.26
- R30S — within error, -0.157 ± 0.23
- R30Y — within error, -0.186 ± 0.47
- K66E — higher, 0.02 ± 0.044
- K66N — higher, 0.058 ± 0.062
- K66C — higher, -0.229 ± 0.056
- Q55H — higher, 0.017 ± 0.052
- Q55G — higher, -0.017 ± 0.037
- Y58H — higher, 0.051 ± 0.069
- Y58K — within error, -0.366 ± 0.066
- Y58R — within error, -0.458 ± 0.043
- Y58W — higher, -0.03 ± 0.04
- Y58Q — higher, -0.231 ± 0.052
- F27W — within error, -0.733 ± 0.15
- F27V — within error, -0.692 ± 0.096
- F27Q — within error, -0.739 ± 0.2
- F19L — higher, -0.129 ± 0.075
- F19Q — higher, 0.125 ± 0.076
- F19I — within error, -0.279 ± 0.27
- F19H — higher, -0.037 ± 0.12
- Q75H — higher, 0.222 ± 0.071
- Q75P — higher, 0.034 ± 0.058
- R71I — higher, 0.084 ± 0.057
- R71T — higher, 0.02 ± 0.045
- R71V — higher, -0.019 ± 0.037
- R71Q — higher, 0.049 ± 0.047
- V74G — higher, -0.102 ± 0.034
- V74C — higher, -0.032 ± 0.052
- V74E — higher, -0.004 ± 0.042
- V74H — higher, -0.104 ± 0.084
- V74Q — higher, -0.063 ± 0.048
- Y38K — within error, -0.831 ± 0.23
- Y38G — within error, -0.458 ± 0.061
- Y38S — within error, -0.791 ± 0.19
- P47D — within error, -0.271 ± 0.12
- P47T — higher, -0.14 ± 0.063
- P47G — higher, -0.153 ± 0.044
- P47L — higher, -0.141 ± 0.056
- P47M — higher, -0.267 ± 0.071
- P47R — higher, -0.188 ± 0.044
- G8R — higher, 0.014 ± 0.058
- G8H — within error, -0.22 ± 0.18
- G8L — higher, 0.042 ± 0.076
- G8Q — higher, 0.146 ± 0.1
- G8D — higher, 0.177 ± 0.12
- L61R — lower, -0.84 ± 0.062
- L61K — lower, -0.78 ± 0.1
- L61C — within error, -0.649 ± 0.089
- L61F — higher, -0.062 ± 0.058
- L61Q — within error, -0.346 ± 0.07
- K29H — higher, -0.048 ± 0.12
- K29Q — higher, 0.03 ± 0.067
- K29V — higher, 0.013 ± 0.042
- K29E — higher, 0.103 ± 0.05
- E3I — higher, -0.108 ± 0.12
- E3N — higher, -0.222 ± 0.14
- C4K — within error, -0.775 ± 0.18
- C4G — within error, -0.731 ± 0.11
- C4V — within error, -0.672 ± 0.078
- C4N — lower, -1.17 ± 0.23
- C4D — within error, -0.724 ± 0.13
- C4F — lower, -0.939 ± 0.13
- Q50I — higher, 0.117 ± 0.089
- Q50A — higher, 0.063 ± 0.037
- Q50V — higher, -0.086 ± 0.041
- Q50T — higher, -0.076 ± 0.069
- Q50E — higher, 0.05 ± 0.044
- Q50W — higher, -0.06 ± 0.05
- Y16G — higher, -0.157 ± 0.061
- Y16C — higher, 0.074 ± 0.12
- Y16L — higher, -0.152 ± 0.089
- Y16A — within error, -0.441 ± 0.11
- D49S — higher, -0.044 ± 0.044
- D49T — higher, -0.152 ± 0.049
- D49L — higher, -0.122 ± 0.052
- D49K — within error, -0.343 ± 0.087
- D49F — higher, 0.017 ± 0.062
- D49N — higher, -0.003 ± 0.052
- D49I — higher, -0.199 ± 0.1
- T20K — lower, -0.868 ± 0.19
- T20V — higher, 0.156 ± 0.038
- T20A — higher, -0.051 ± 0.042
- T20E — higher, -0.116 ± 0.051
- R70V — higher, 0.032 ± 0.056
- R70H — higher, -0.004 ± 0.085
- N54F — higher, -0.222 ± 0.1
- N54L — higher, -0.029 ± 0.043
- N54C — within error, -0.314 ± 0.11
- C56R — lower, -0.886 ± 0.091
- C56T — lower, -1.13 ± 0.31
- C56F — within error, -0.506 ± 0.17
- R76M — higher, -0.047 ± 0.058
- A42H — within error, -0.068 ± 0.34
- A42K — higher, 0.002 ± 0.085
- A42V — higher, 0.09 ± 0.062
- H52R — higher, -0.154 ± 0.042
- H52A — higher, 0.041 ± 0.041
- H52E — higher, 0.08 ± 0.051
- H52P — higher, 0.09 ± 0.043
- H52C — higher, -0.092 ± 0.061
- H52D — higher, -0.092 ± 0.053
- H52K — higher, -0.035 ± 0.055
- K14H — higher, 0.524 ± 0.29
- R53L — higher, -0.081 ± 0.065
- R53C — higher, -0.001 ± 0.11
- R53N — higher, -0.044 ± 0.16
- R53I — higher, -0.169 ± 0.17
- R53E — higher, 0.018 ± 0.07
- R53Q — higher, 0.12 ± 0.21
- R53P — higher, 0.111 ± 0.088
- R53V — higher, -0.069 ± 0.06
- R53T — higher, 0.017 ± 0.066
- R41P — higher, 0.265 ± 0.055
- R41N — higher, 0.21 ± 0.17
- R41M — higher, 0.08 ± 0.078
- R41D — higher, 0.085 ± 0.12
- C64R — lower, -0.908 ± 0.077
- C64K — lower, -0.866 ± 0.13
- C64A — higher, -0.203 ± 0.043
- C64E — lower, -0.831 ± 0.099
- C64V — lower, -0.823 ± 0.072
- C64S — within error, -0.475 ± 0.062
- C64Q — lower, -0.8 ± 0.13
- C64D — lower, -0.893 ± 0.18
- C64H — within error, -0.577 ± 0.16
- H15E — higher, 0.202 ± 0.26
- H15Y — higher, -0.144 ± 0.18
- H15V — higher, -0.135 ± 0.12
- H15K — within error, -0.857 ± 0.5
- H15N — higher, 0.148 ± 0.24
- C21I — within error, -0.999 ± 0.37
- C21S — within error, -0.757 ± 0.13
- C21M — lower, -1.01 ± 0.22
- C21H — within error, -0.775 ± 0.36
- C21V — lower, -1.09 ± 0.13
- N35K — higher, 0.085 ± 0.097
- N35G — higher, -0.003 ± 0.062
